Measurements reported in patent publication US20170044241A1 (VYBION, published 2017).
No end group written: not given here. biotin = biotin label at C-terminus

Tests used:
[1] = biological target: T1, biotinylated Huntingtin peptide Happ(+) (RPQLPQPPPQAQPRGGGSK-biotin); assay: ELISA, H8 in E. coli lysate against purified H8; peptide not given
T1 construct: also called biotinylated PRP; poly-proline peptide
T1 peptide: RPQLPQPPPQAQPRGGGSK-biotin

[2] = biological target: T2, biotinylated Huntingtin peptide Happ(-) (PGPAVAEEPLHRPG-biotin); assay: as above
T2 construct: also called second biotinylated proline rich peptide; carboxy derived Huntington's peptide
T2 peptide: PGPAVAEEPLHRPG-biotin

[3] = biological target: T1, biotinylated Huntingtin peptide Happ(+) …; assay: ELISA, purified scFv on biotinylated peptide
Protocol: (§1) ELISA was performed to determine the binding activity of isolated scFv clones against biotinylated Huntingtin peptide designated Happ(+) ([…]-biotin (SEQ ID NO: 26), and a second biotinylated Huntingtin peptide designated Happ(−) ([…]-biotin (SEQ ID NO: 28). All incubations except antigen coating were carried out at room temperature. Microtiter plates (Nuc) were coated with 100 μl of a biotinlyated Huntingtin peptide solution (2 μg/ml in 50 mM NaHCO3 buffer, pH 9.6) and incubated overnight at 4° C. The plates were washed 3 times with 200 μl of 1×TBS (50 mM Tris-Cl, 150 mM NaCl pH 8.0) and blocked with 100 μl of 2% milk in TBS for 2 hr. Plates were washed once with 200 μl of 1×TBS. In some experiments, preblocked Strepavidin coated plates (Pierce) were used to bind biotinylated peptide. Cell extracts (50 μl) or purified StrepII tagged Intrabodies were added to the antigen-coated blocked plates and incubated for 1.5 hr. Extracts of E. coli cultures from individual colonies selected by panning after overnight induction with IPTG were prepared by lysis in B-Per (Pierce) as described by the manufacturer and centrifuged at 10,000×g for 10 minutes to remove cell wall and debris. Supernatants from these extracts were used directly or diluted with TBS (1:2, 1:4) prior to use. […] The optical density (OD) was measured at 405 nm on a spectrophotometer and the level of scFv binding determined. […]

[4] = biological target: T2, biotinylated Huntingtin peptide Happ(-) …; assay: ELISA, purified intrabody on poly-proline peptides (FIG. 1A)
Protocol: as §1

[5] = biological target: T1, biotinylated Huntingtin peptide Happ(+) …; assay: ELISA, purified intrabody on poly-proline peptides (FIG. 1C)
Protocol: as §1

[6] = biological target: T2, biotinylated Huntingtin peptide Happ(-) …; assay: as above
Protocol: as §1

[7] = biological target: T1, biotinylated Huntingtin peptide Happ(+) …; assay: ELISA, purified intrabody on poly-proline peptides (FIG. 1B)
Protocol: as §1

[8] = biological target: T2, biotinylated Huntingtin peptide Happ(-) …; assay: as above
Protocol: as §1

B1: H8 (scFv)
scFv: MAEVQLVVSGGGLVKPGGSMILSCAASGFTFSNYSMNWVRQAPGKGLEWVSSISSSSEYIYYADFVKGRFTISRDNAKNSLYLQMDSLRAEDTAVYYCAAAVCNGRPDTWGRGTLVTVSSGGGGSGGGGSGGGGSQSVLTQPASVSGSPGQSITISCAGTSSDVGGYNYVSWYQQHPGKAPKLMIYEDSKRPSGVSNRFSGSKSGNTASLTISGLRAEDEADYYCGYSLLPVLFGGGTKLAVLGAAAEQKLIS
notes: Single chain intrabody; tested purified (StrepII tag) and also in E. coli lysate form; not shown: carboxy terminal StrepII tag of the purified form (pET24)
[1]
  fold signal, lysate form against purified form: 3 times
[2]
  fold signal, lysate form against purified form: 3 times

B2: INT41 (scFv)
scFv: MAEVQLVVSGGGLVKPGGSMILSCAASGFTFSNYSMNWVRQAPGKGLEWVSSISSSSEYIYYADFVKGRFTISRDNAKNSLYLQMDSLRAEDTAVYYCAWPGYRKAWGRGTLVTVSSGGGGSGGGGSGGGGSQSVLTQPASVSGSPGQSITISCAGTSSDVGGYNYVSWYQQHPGKAPKLMIYEDSKRPSGVSNRFSGSKSGNTASLTISGLRAEDEADYYCSYCASKGHWLFGGGTKLAVLGAAAEQKLIS
notes: Single chain intrabody (VH-linker-VL) from the T3 scFv library; Purified from E. coli with a carboxy terminal StrepII tag for the ELISA; also called INT41 intrabody; not shown: carboxy terminal StrepII tag of the purified form (pET24)
[3]
  binding result: binds
[4]
  binding result: binds

B3: E10 (scFv)
scFv: MAEVQLVVSGGGLVKPGGSMILSCAASGFTFSNYSMNWVRQAPGKGLEWVSSISSSSEYIYYADFVKGRFTISRDNAKNSLYLQMDSLRAEDTAVYYCAITGCECTWGRGTLVTVSSGGGGSGGGGSGGGGSQSVLTQPASVSGSPGQSITISCAGTSSDVGGYNYVSWYQQHPGKAPKLMIYEDSKRPSGVSNRFSGSKSGNTASLTISGLRAEDEADYYCSCIRGLKAAYFGGGTKLAVLGAAAEQKLIS
notes: Single chain intrabody; purified with a carboxy terminal StrepII tag for the ELISA; not shown: carboxy terminal StrepII tag of the purified form (pET24)
[5]
  binding result: binds
[6]
  binding result: binds

B4: A2 (scFv)
scFv: MAEVQLVVSGGGLVKPGGSMILSCAASGFTFSNYSMNWVRQAPGKGLEWVSSISSSSEYIYYADFVKGRFTISRDNAKNSLYLQMDSLRAEDTAVYYCAHWPRLWRFPLWGRGTLVTVSSGGGGSGGGGSGGGGSQSVLTQPASVSGSPGQSITISCAGTSSDVGGYNYVSWYQQHPGKAPKLMIYEDSKRPSGVSNRFSGSKSGNTASLTISGLRAEDEADYYCVLNMHWANFGGGTKLAVLGAAAEQKLIS
notes: as for B3
[7]
  binding result: binds
[8]
  binding result: binds
